Reference: patent US20200165325A1
Where two headings read alike, the source gives them in different places.

Legend:
[1] = target: Env (gp120) of HIV-1 strain ZM109F.PB4 (HIV-1)
[2] = target: Env (gp120) of HIV-1 strain ZM249M.PL1 (HIV-1)
[3] = target: Env (gp120) of HIV-1 strain Du156.12 (HIV-1)
[4] = target: Env (gp120) of HIV-1 strain ZM197M.PB7 (HIV-1)
[5] = target: Env (gp120) of HIV-1 strain ZM53M.PB12 (HIV-1)
[6] = target: Env (gp120) of HIV-1 strain ZM135M.PL10a (HIV-1)
[7] = target: Env (gp120) of HIV-1 strain ZM214M.PL15 (HIV-1)
[8] = target: Env (gp120) of HIV-1 strain TRO.11 (HIV-1)
[9] = target: Env (gp120) of HIV-1 strain CAP210.2.00.E8 (HIV-1)
[10] = target: Env (gp120) of HIV-1 strain CAP45.2.00.G3 (HIV-1)
[11] = target: Env (gp120) of HIV-1 strain SC422661.8 (HIV-1)
[12] = target: Env (gp120) of HIV-1 strain QH0692.42 (HIV-1)
[13] = target: Env (gp120) of HIV-1 strain T257-31 (HIV-1)
[14] = target: Env (gp120) of HIV-1 strain TRO.11 (HIV-1); remark: listed apart in the source
[15] = target: Env (gp120) of HIV-1 strain AC10.0.29 (HIV-1)
[16] = target: Env (gp120) of HIV-1 strain ZM214M.PL15 (HIV-1); remark: listed apart in the source
[17] = target: Env (gp120) of HIV-1 strain AC10.0.29 (HIV-1); remark: listed apart in the source
[18] = target: Env (gp120) of HIV-1 strain 211-9 (HIV-1)
[19] = target: Env (gp120) of HIV-1 strain C2101.c01 (HIV-1)
[20] = target: Env (gp120) of HIV-1 strain 3016.v5.c45 (HIV-1)
[21] = target: HIV-1 Env of strain ZM214M.PL15.11 (HIV-1)
[22] = target: HIV-1 Env of strain SC422661.8 (HIV-1)
[23] = target: HIV-1 Env of strain AC10.0.29 (HIV-1)
[24] = target: HIV-1 Env of strain QH0692.42 (HIV-1)
[25] = target: HIV-1 Env of strain CAP45.2.00.G3 (HIV-1)
[26] = target: HIV-1 Env of strain TRO.11 (HIV-1)
[27] = target: HIV-1 Env of strain T257-31 (HIV-1)
[28] = target: Env (gp120) of HIV-1 strain SC422661.8 (HIV-1); remark: listed apart in the source
[29] = target: Env (gp120) of HIV-1 strain Du172.17 (HIV-1)
[30] = target: Env (gp120) of HIV-1 strain AC10.0.29 (HIV-1); remark: listed apart in the source
[31] = target: Env (gp120) of HIV-1 strain T255-34 (HIV-1)
[32] = target: Env (gp120) of HIV-1 strain 3718.v3.c11 (HIV-1)
[33] = target: Env (gp120) of HIV-1 strain CAP210.2.00.E8 (HIV-1); remark: listed apart in the source
[34] = target: Env (gp120) of HIV-1 strain CAP45.2.00.G3 (HIV-1); remark: listed apart in the source
[35] = target: gp160 of HIV-1 strain YU2 with a substitution of 458gp120 (HIV-1)

Row | Substance | neutralization IC50 [8] | neutralization IC50 [9] | neutralization IC50 [10] | neutralization IC50 [17] | neutralization IC50 [18] | neutralization IC50 [28] | neutralization IC50 [29] | neutralization IC50 [30] | neutralization IC50 [34] | other results
1 | NIH45-46 IgG (antibody) | 1 µg/mL | > 50 µg/mL | > 50 µg/mL | 0.56 µg/mL | > 50 µg/mL | – | – | – | – | neutralization IC50 [1]: 0.22 µg/mL; neutralization IC50 [2]: 0.02 µg/mL; neutralization IC50 [3]: 0.01 µg/mL; neutralization IC50 [4]: 0.14 µg/mL; neutralization IC50 [5]: 0.65 µg/mL; neutralization IC50 [6]: 0.36 µg/mL; neutralization IC50 [7]: 0.05 µg/mL; neutralization IC50 [11]: 0.05 µg/mL; neutralization IC50 [12]: 0.7 µg/mL; neutralization IC50 [13]: 0.5 µg/mL; neutralization IC50 [14]: 1.9 µg/mL; neutralization IC50 [15]: 0.9 µg/mL; neutralization IC50 [16]: 0.3 µg/mL; neutralization IC50 [19]: 12.8 µg/mL; neutralization IC50 [20]: > 30 µg/mL
2 | NIH45-46 IgG (wild type) (antibody) | – | – | – | – | – | – | – | – | – | In vitro neutralization IC50 [21]: 0.5 µg/mL; In vitro neutralization IC50 [22]: 0.05 µg/mL; In vitro neutralization IC50 [23]: 0.9 µg/mL; In vitro neutralization IC50 [24]: 0.7 µg/mL; In vitro neutralization IC50 [25]: > 50 µg/mL; In vitro neutralization IC50 [26]: 1.9 µg/mL; In vitro neutralization IC50 [27]: 0.5 µg/mL
3 | NIH45-46^G54F IgG (antibody) | 0.08 µg/mL | > 50 µg/mL | > 50 µg/mL | 0.24 µg/mL | > 50 µg/mL | 0.02 µg/mL | 16 µg/mL | 0.3 µg/mL | – | –
4 | NIH45-46^G54W IgG (antibody) | 0.09 µg/mL | 41 µg/mL | 6.6 µg/mL | 0.13 µg/mL | 16.4 µg/mL | 0.03 µg/mL | 0.9 µg/mL | 0.2 µg/mL | 32.2 µg/mL | improvement of neutralization potency over NIH45-46 [31]: > 700 fold; improvement of neutralization potency over NIH45-46 [32]: 2000 fold; neutralization IC50 [33]: > 50 µg/mL; neutralization of pseudovirus carrying mutant gp160 [35]: > 1500 fold
5 | NIH45-46^G54Y IgG (antibody) | 0.1 µg/mL | > 50 µg/mL | 45 µg/mL | 0.19 µg/mL | > 50 µg/mL | 0.06 µg/mL | – | 0.4 µg/mL | > 50 µg/mL | –
